Consider 17 molecules from patent US20070179086A1 (Amgen, published 2007).

B1: anti-TR-2 antibody A (antibody, V domains shown)
VH: QVQLVQSGAEVKKPGASVKVSCKASGYTFTSYDINWVRQATGQGLEWMGWMNPNSDNTGYAQKFQGRVTMTRNTSISTAYMELSSLRSEDTAVYYCARWNHYGSGSHFDYWGQGTLVTVSS
VL: DIQMTQSPSSLSASVGDRVTITCRASQSISIYLNWYQQKPGKAPKLLIYAASSLQSGVPLRFSGSGSGTDFTLTISSLQPEDIATYYCQQSYKTPLTFGGGTKVEIK
notes: also called Ab A
B2: anti-TR-2 antibody J (antibody, V domains shown)
VH: QVQLVESGGGVVQPGRSLRLSCAASGFTFNNYGMHWVRQAPGKGLEWVAVIWYDGSNKYYADSVKGRFTISRDNSKNTLYLQMNSLRAEDTAVYYCARDRTVYSNSSPFYYYYYGMDVWGQGTTVTVSS
VL: DIQMTQSPSSLSASVGDRVTITCRTSQSISTYLNWYQQKPGKAPKLLISATSSLQSGVPSRFSGSGSGTDFTLTISSLQPEDFATYYCQQSYSTPLTFGGGTKVEIK
notes: also called Ab J
B3: anti-TR-2 antibody K (antibody, V domains shown)
VH: QVQLVESGGGVVQPGRSLRLSCAASGFTFSTYGMHWVRQAPGKGLEWVAVIWYDGSNKYYADSVKGRFTISRDNSKNTLYLQMNSLRAEDTAVYYCARDRTVYSSSSPFYYYYYGMDVWGQGTTVTVSS
VL: DIQMTQSPSSLSASVGDRVTITCRASQSISSYLNWYQQKPGKAPKLLISATSSFQSGVPSRFSGSGSGTDFTLTISSLQPEDFAAYYCQQSYSTPLTFGGGTKVEIK
notes: also called Ab K
B4: anti-TR-2 antibody I (antibody, V domains shown)
VH: QVQLVESGGGLVKPGGSLRLSCAASGFTFSDYYMSWIRQAPGKGLEWVSYISRSGSTIYYADSVKGRFTISRDNAKNSLYLQMNSLRAEDTAVYYCARSLGGMDVWGQGTTVTVSS
VL: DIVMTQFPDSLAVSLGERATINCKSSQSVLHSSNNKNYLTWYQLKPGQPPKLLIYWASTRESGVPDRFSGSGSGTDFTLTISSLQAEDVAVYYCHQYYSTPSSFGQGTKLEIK
notes: also called Ab I
B5: anti-TR-2 antibody H (antibody, V domains shown)
VH: QVQLQESGPGLVKPSQTLSLTCTVSGGSISSDNYYWSWIRQHPGKGLEWIGYIYYSGSTYYNPSLKSRVTISVDTSKNQFSLKLSSVTAADTAVYYCARGVNWNFLFDIWGQGTMVTVSS
VL: not shown
notes: also called Ab H
B6: anti-TR-2 antibody G (antibody, V domains shown)
VH: QVQAEQSGPGLVKPSETLSLTCTVSGGSISNYYWSWIRQPPGKGLEWIGYIYYSGSTKYNPSLKSRVTISVDTSKNQFSLKLTSVTTADTAVYYCARDSPRGFSGYEAFDSWGQGTLVTVSS
VL: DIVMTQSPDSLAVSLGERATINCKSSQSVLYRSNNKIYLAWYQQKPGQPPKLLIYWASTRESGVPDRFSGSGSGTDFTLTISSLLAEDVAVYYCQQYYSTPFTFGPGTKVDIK
notes: also called Ab G
B7: anti-TR-2 antibody M (antibody, V domains shown)
VH: EVQVVESGGGLVKPGGSLRLSCAASGFTFSSYSMNWVRQAPGKGLEWVSSISSSSSYIYYADSVKGRFTISRDNAKNSLYLQMNSLRAEDTAVYYCARGGSSWYGDWFDPWGQGTLVTVSS
VL: DIQMTQSPSSVSASVGDRVTITCRASQGISSWLVWYQQKPGKAPKLLIYAASSLQSGVPSRFSGSGSGTDFTLTISSLQPEDFATYYCQQANSFPFTFGGGTKVEIK
notes: also called Ab M
B8: anti-TR-2 antibody O (antibody, V domains shown)
VH: QVQLQESGPGLVKPSQTLSLTCTVSGGSISSGDYFWSWIRQLPGKGLECIGHIHNSGTTYYNPSLKSRVTISVDTSKKQFSLRLSSVTAADTAVYYCARDRGGDYYYGMDVWGQGTTVTVSS
VL: EIVLTQSPGTLSLSPGERATLSCRASQGISRSYLAWYQQKPGQAPSLLIYGASSRATGIPDRFSGSGSGTDFTLTISRLEPEDFAVYYCQQFGSSPWTFGQGTKVEIK
notes: also called Ab O
B9: anti-TR-2 antibody D (antibody, V domains shown)
VH: QVQLQESGPGLVKPSQTLSLTCTVSGGSISSGGHYWSWIRQHPGKGLEWIGYIYYSGSAYYNPSLKSRVTISVDTSKNQFSLKLSSVTAADTAVYYCARDDSSGWGFDYWGQGILVTVSS
VL: DIQMTQSPSSLSASVGDRVTITCRASQGLRNDLGWFQQKPGKAPKRLIYAASSLQRGVPSRFSGSGSGTEFTLTISSLQPEDFTTYFCLQHNSFPWTFGQGTKVEIK
notes: Human antibody from XenoMouse; also called Ab D
B10: anti-TR-2 antibody C (antibody, V domains shown)
VH: QVQLQESGPGLVKPSQTLSLTCTVSGGSISSGGHYWSWIRQHPGKGLEWIGYIYYSGSAYYNPSLKSRVTISVDTSKNQFSLKLSSVTAADTAVYYCARDDSSGWGFDYWGQGILVTVSS
VL: DIQMTQSPSSLSASVGDRVTITCRASQGLRNDLGWFQQKPGKAPKRLIYAASSLQRGVPSRFSGSGSGTEFTLTISSLQPEDFTTYFCLQHNSFPWTFGQGTKVEIK
notes: Human antibody from XenoMouse; also called Ab C
B11: anti-TR-2 antibody B (antibody, V domains shown)
VH: QVQLQESGPGLVKPSQTLSLTCTVSGGSISSGGHYWSWIRQHPGKGLEWIGYIYYSGSTYYNPSLKSRVTISVDTSKNQFSLKLSSVTAADTAVYYCARDDSSGWGFDYWGQGILVTVSS
VL: DIQMTQSPSSLSASVGDRVTITCRASQGLRNDLGWFQQKPGKVTKRLIYAASSLQRGVPSRFSGSGSGTEFTLTISSLQPEDFATYYCLQHYSFPWTFGQGTKVEIK
notes: Human antibody from XenoMouse; also called Ab B
B12: anti-TR-2 antibody L (antibody, V domains shown)
VH: QVQLQQWGARLLKPSETLSLTCAVYGGSFSGYYWSWIRQPPGKGLEWIGEINHSGSTNYNPSLKSRVTISVDTSKNQFSLKLRSVTAADTAVYYCARGGSSGYWYFDLWGRGTLVTVSS
VL: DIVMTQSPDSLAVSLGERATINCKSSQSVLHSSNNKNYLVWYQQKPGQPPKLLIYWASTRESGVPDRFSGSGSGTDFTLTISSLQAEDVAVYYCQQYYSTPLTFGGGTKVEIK
notes: also called Ab L
B13: anti-TR-2 antibody F (antibody, V domains shown)
VH: QVQLVESGGGVVQPGRSLRLSCAASGFTFSYYGIHWVRQAPGKGLEWVAVIWYDGSNKYYADSVKGRFTISRDNSKNTLYLQMNSLRAEDTAVYYCARGRYSSSSWWYFDLWGRGTLVTVSS
VL: DIQMTQSPSSLSASVGDRVTITCRASQGISNYLAWYQQKPGKVPKLLIYAASTLQSGVPSRFSGSGSGTDFTLTISSLQPEDVATYYCQKYNSAPLTFGGGTKVEIK
notes: also called Ab F
B14: anti-TR-2 antibody E (antibody, V domains shown)
VH: QVQLVESGGGLVKPGGSLRLSCAASGFTFSDYYMNWIRQAPGKGLEWVSHISSSGSILDYADSVKGRFTISRDNAKNSLYLQMNSLRVEDTAVYYCARDGAAAGTDAFDLWGQGTMVTVSS
VL: DIQMTQSPSSLSASVGDRVTITCRSSQSISNYINWYQQRPGKAPNLLIHDVSSFQSAVPSRFSRSGSGTVFTLTISSLQPEDFATYFCQQTYITPFTFGPGTKVDIK
notes: also called Ab E
B15: anti-TR-2 antibody P (antibody, V domains shown)
VH: QVQLQESGPGLVKPSQTLSLTCSVSGGSISSGGYYWSWIRQHPGKGLEWIGYIYYSGSTYCNPSLKSRVTISVDTSKNQFSLKLSSVTAADTAVYYCARDNGSGSYDWFDPWGQGILVTVSS
VL: DIQMTQSPSSVSASVGDRVTITCRASQGISSWLAWYQQKPGKAPKFLIFVASSFQSGVPSRFSGSGSGTDFTLTISSLQPEDFATYYCQQANSFPRTFGQGTKVEIK
notes: Human antibody from XenoMouse; also called Ab P
B16: anti-TR-2 antibody Q (antibody, V domains shown)
VH: QVQMQESGPGLVKPSQTLSLTCTVSGGSISSGDYYWSWIRQHPGKNLEWIGYIYYSGSTYYNPSLKSRVTISVDTSKNQFSLKLSSVTAADTAVYYCARDNGSGSYDWFDPWGQGTLVTVSS
VL: DIQMTQSPSSVSASVGDRVTITCRASQGISSWLAWYQQKPGKAPKFLIFVASSLQSGVPSRFSGSGSGTDFTLTISSLQPEDFATYYCQQANSFPRTFGQGTKVEIK
notes: Human antibody from XenoMouse; also called Ab Q
B17: anti-TR-2 antibody N (antibody, V domains shown)
VH: QLVESGGGVVQPGRSLRLSCAASGFTFSSYGMHWVRQAPGKGLEWVAVIWYDGRNKYYADSVKGRFTISRDNSKNTLYLQMNSLRAEDTAVYYCAREVGYCTNGVCSYYYYGMDVWGQGTTVTVSS
VL: DIQMTQSPSSLSASVGDRVTITCRASQGISNYLAWFQQKPGKAPKSLIYAASSLQSGVPSKFSGSGSGTDFTLTISSLQPEDFATYYCQQYNSYPLTFGGGTKVEIK
notes: also called Ab N

As usually defined, the Kd is the free concentration of one partner at which half of the binding sites on the other are occupied at equilibrium, for simple one-to-one binding. The koff is the first-order rate constant of dissociation. In general, kon refers to a measure of how fast the partners come together.

The target in the first experiment is T1, recombinant human TR-2 with a C-terminal hexahistidine tag (TR-2-His) (human, UniProt O14763 56-207).
T1 construct: also called soluble TR-2-His
Description: SPR Biacore 2000; antibody captured on anti-human antibody chip, 226 nM TR-2-His injected, 25 C, 1:1 model.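 Note: goat anti-human capture surface amine-coupled on CM5 chip, HBS-P running buffer with BSA, responses normalized to captured antibody level, kinetics from global 1:1 fitting.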 In general terms: Surface plasmon resonance follows binding to a sensor surface in real time, without labels.
Description: (§1) The kinetics of the binding of anti-TR-2 antibodies A to Q to TR-2 was analyzed using a Biacore® 2000 instrument. High-density goat anti-human antibody surfaces were prepared on CM-5 Biacore® chips using routine amine coupling. Each purified anti-TR-2 antibody was diluted to approximately 1 μg/ml in HBS-P running buffer containing 100 μg/ml BSA. Each anti-TR-2 antibody was captured on a separate surface using a two minute contact time and a five minute wash to stabilize the anti-TR-2 antibody surface on the chip.
(§2) Additionally, the data for TR-2 binding to anti-TR-2 antibody were normalized for the amount of monoclonal antibody captured on each surface. Each data set was fit globally to a 1:1 interaction model to determine binding kinetics.
Take B1: the Kd was determined as 6.9 nM, the koff turned out to be 0.0037 s⁻¹ and the kon was found to be 530000 M⁻¹ s⁻¹.
B2: the Kd amounted to 12 nM, the koff stood at 0.0071 s⁻¹ and the kon amounted to 570000 M⁻¹ s⁻¹.
The matching figures for B3: 18 nM, 0.012 s⁻¹ and 680000 M⁻¹ s⁻¹.
B4: the Kd turned out to be 4.4 nM, the koff is 0.0013 s⁻¹ and the kon turned out to be 290000 M⁻¹ s⁻¹.
As for B5, the Kd was found to be 9.8 nM, the koff turned out to be 0.0084 s⁻¹ and the kon turned out to be 860000 M⁻¹ s⁻¹.
Take B6: the Kd turned out to be 31 nM, the koff came out at 0.019 s⁻¹ and the kon amounted to 600000 M⁻¹ s⁻¹.
Consider B7, for which the Kd was determined as 37 nM, the koff stood at 0.012 s⁻¹ and the kon came to 340000 M⁻¹ s⁻¹.
On to B8, for which the Kd came out at 19 nM, the koff worked out at 0.0084 s⁻¹ and the kon was 440000 M⁻¹ s⁻¹.
The like results for B9 were, in that order, 4.5 nM, 0.0027 s⁻¹ and 620000 M⁻¹ s⁻¹.
B10: the dissociation constant Kd was determined as 3.9 nM, the koff worked out at 0.0026 s⁻¹ and the kon turned out to be 680000 M⁻¹ s⁻¹.
The like results for B11 were, in that order, 19 nM, 0.011 s⁻¹ and 570000 M⁻¹ s⁻¹.
Regarding B12, the Kd is 18 nM, the koff came to 0.011 s⁻¹ and the kon was 600000 M⁻¹ s⁻¹.
As for B13, the Kd was 13 nM, the koff was determined as 0.005 s⁻¹ and the kon was 380000 M⁻¹ s⁻¹.
As for B14, the Kd came out at 2.1 nM, the koff turned out to be 0.0018 s⁻¹ and the kon was 870000 M⁻¹ s⁻¹.

The target of the next experiment is T1, recombinant human TR-2 with a …. Description: SPR Biacore 2000; antibody captured on anti-human antibody chip, 226 nM TR-2-His injected, 25 C, 1:1 model; data heterogeneous, fit poorly.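 Note: goat anti-human capture surface amine-coupled on CM5 chip, HBS-P running buffer with BSA, responses normalized to captured antibody level, kinetics from global 1:1 fitting.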
Description: as §1, §2
For the molecule B15, the Kd is 33 nM, the koff stood at 0.027 s⁻¹ and the kon came to 810000 M⁻¹ s⁻¹.
On to B16, for which the Kd came out at 13 nM, the koff was determined as 0.016 s⁻¹ and the kon stood at 1.2e+06 M⁻¹ s⁻¹.
Turning to B17, the Kd was found to be 68 nM, the koff was 0.055 s⁻¹ and the kon was determined as 810000 M⁻¹ s⁻¹.
